Non-specific binding call data for 117 variants are collected here from the emibetuzumab library of Makowski et al. (2022).

B1: VH:VL chains; a variant is named by its letters at X, in order (parent)
chain 1: QVQLVQSGAEVKKPGASVKVSCKASGYTFTDYXMHWVRQAPGQGLEWMGXVNPNXXXTTYNQKFEGRVTMTTDTSTSTAYMELRSLRSDDTAVYYCARXNXLDXWGQGTTVTVSS
chain 2: DIQMTQSPSSLSASVGDRVTITCSVSSSVSSIYLHWYQQKPGKAPKLLIYSTSNLASGVPSRFSGSGSGTDFTLTISSLQPEDFATYYCQVYSGYPLTFGGGTKVEIK

In the data set the parent is B1. The data set can be described thus: yeast display scFab, FACS + sequencing. An outline of the steps: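 Non-specific binding was called from deep sequencing of sorted yeast cells displaying a heavy-chain CDR mutant scFab library. Cells labelled with anti-Myc and biotinylated ovalbumin (260 μg/mL in PBSB, 3 h, room temperature) or soluble membrane proteins (130 μg/mL, 20 min on ice) were FACS-sorted, collecting the top 25% and bottom 10% of binders from two replicates. A sequence was positive when present in ≥3 of 4 pooled positive samples and absent from all negatives, and negative under the converse rule.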
With VGRTSFGF, the non-specific binding call is recorded as “binds”.

Turning to VGKGDDAA, the non-specific binding call is “no binding”.

On to FGRGGVGD, for which the non-specific binding call is “binds”.

As to YGKGGDLA, the non-specific binding call is on record as “binds”.

Turning to YKAGDSSD, the non-specific binding call was “no binding”.

With SKAENAWV, the non-specific binding call is “binds”.

For the variant VKAGGAGS chain 1 G44D, the non-specific binding call is listed as “binds”.

For the variant YKAGDDGA, the non-specific binding call is listed as “no binding”.

As for YKAGGALY, the non-specific binding call is “binds”.

With YKAGGALD, the non-specific binding call is “binds”.

Consider YKAGGALA, for which the non-specific binding call is recorded as “binds”.

In the case of YGKRDASY, the non-specific binding call was “binds”.

Turning to SGKKSSGV, the non-specific binding call was “binds”.

With VKAGDSSS, the non-specific binding call is listed as “no binding”.

As for FKAGGAVA, the non-specific binding call is “binds”.

Turning to SGRGNDAV, the non-specific binding call is “no binding”.

Take VGGTSSAD: the non-specific binding call is given as “no binding”.

As for YGKGTSGF, the non-specific binding call is recorded as “no binding”.

Turning to FGKEDSVD, the non-specific binding call was “binds”.

With YKAGDSVA, the non-specific binding call is reported as “no binding”.

In the case of VKAGDAWS, the non-specific binding call was “no binding”.

Regarding VGRGNVGV, the non-specific binding call is listed as “binds”.

VGRGNSGD: the non-specific binding call is “no binding”.

As to DGKEGYWA, the non-specific binding call is on record as “binds”.

Take YGRGNSGD: the non-specific binding call is reported as “no binding”.

As for DGGTNAGD, the non-specific binding call was “no binding”.

Consider YKAGGSAS, for which the non-specific binding call was “binds”.

Turning to VKAGGDAV, the non-specific binding call was “no binding”.

In the case of VKAGASAD, the non-specific binding call is on record as “binds”.

For the variant SGRGNAAD, the non-specific binding call is on record as “no binding”.

As to VGGTSDWA, the non-specific binding call is on record as “no binding”.

With SGKKAVWV, the non-specific binding call was “binds”.

For VKAGGDSD, the non-specific binding call is “no binding”.

With FGKGGFGY, the non-specific binding call is recorded as “binds”.

SKAGGSAD: the non-specific binding call is reported as “binds”.

On to FGRRTYGD, for which the non-specific binding call is “binds”.

Consider DGTGGSGA chain 1 R67H, for which the non-specific binding call was “no binding”.

Turning to VGRATVGS, the non-specific binding call is given as “binds”.

In the case of YKAGDAAA, the non-specific binding call is reported as “binds”.

Regarding SKAGGDVD, the non-specific binding call is “no binding”.

Take SGRGNDGV: the non-specific binding call is listed as “no binding”.

As to VKAGDSGA, the non-specific binding call is reported as “no binding”.

For DGRGNSGD, the non-specific binding call was “no binding”.

With YGTATFLV, the non-specific binding call is listed as “binds”.

For the variant SGGTGDVF, the non-specific binding call is given as “no binding”.

Turning to FKAEAFSF, the non-specific binding call is “binds”.

VGGTSSGA: the non-specific binding call is recorded as “no binding”.

As to DKAGGDGS, the non-specific binding call is recorded as “no binding”.

In the case of SGRGNSVD, the non-specific binding call is listed as “no binding”.

For SGRGNALD, the non-specific binding call is given as “no binding”.

For the variant SKAGDAWY, the non-specific binding call is given as “binds”.

For the variant SKAGDAWD, the non-specific binding call is given as “binds”.

With AGGTSYSV, the non-specific binding call is “no binding”.

As to DGTKSYGV, the non-specific binding call is “binds”.

For SKAGGALD, the non-specific binding call is “binds”.

Turning to FGRGTSGD, the non-specific binding call is “binds”.

Turning to VGTKGDAA, the non-specific binding call is reported as “no binding”.

Regarding YGTAAFGF, the non-specific binding call is listed as “binds”.

Take YKAGGAWD: the non-specific binding call is “binds”.

As for VKAGDAVY, the non-specific binding call is on record as “no binding”.

For the variant FGRGSSWA, the non-specific binding call is reported as “no binding”.

In the case of DGGTGDVF, the non-specific binding call is “no binding”.

Take VGGTGSGY: the non-specific binding call is recorded as “no binding”.

As for VGGTGSGA, the non-specific binding call is “no binding”.

For the variant YGTRSYGV, the non-specific binding call is listed as “binds”.

On to VKAGDDVA, for which the non-specific binding call is “no binding”.

As to YGRRGFSV, the non-specific binding call is “binds”.

Regarding VGGTSSSV, the non-specific binding call is “no binding”.

On to VGGTSSSS, for which the non-specific binding call was “no binding”.

On to VGGTSSSA, for which the non-specific binding call is given as “no binding”.

Turning to DGGTSYSV, the non-specific binding call is “no binding”.

FGTKGAWD: the non-specific binding call is on record as “binds”.

For the variant VGTKGAGF, the non-specific binding call is recorded as “binds”.

Regarding VKAGGDVY, the non-specific binding call is on record as “no binding”.

Take SGRGNSGV: the non-specific binding call is listed as “no binding”.

Turning to SKAGGAGA, the non-specific binding call was “binds”.

As for YKAGGFWF, the non-specific binding call is “binds”.

As to AKAGGASD, the non-specific binding call is on record as “binds”.

As for DGTGGAGA, the non-specific binding call is on record as “no binding”.

Consider VGGTSALD, for which the non-specific binding call is recorded as “no binding”.

With AKAADSSD, the non-specific binding call is reported as “binds”.

On to DGGTNSSA, for which the non-specific binding call is “no binding”.

For SGTADSSS, the non-specific binding call is on record as “binds”.

On to VKAAGSVD, for which the non-specific binding call was “binds”.

Turning to SGREGDWD, the non-specific binding call was “binds”.

As for VGGTSSLD, the non-specific binding call was “no binding”.

As for AGRGADLS, the non-specific binding call is listed as “no binding”.

On to YGTRSAAD, for which the non-specific binding call is “no binding”.

VKAGDAAV: the non-specific binding call was “no binding”.

As for FGRRGAGV, the non-specific binding call is “binds”.

Consider AGTRSFGY, for which the non-specific binding call was “binds”.

DGGTNDGA: the non-specific binding call is recorded as “no binding”.

Turning to VGGTSDGA, the non-specific binding call was “no binding”.

For the variant VGGTSDGV, the non-specific binding call is listed as “no binding”.

With VGGTSDGD, the non-specific binding call is “no binding”.

Take DGRGDALS: the non-specific binding call is reported as “no binding”.

Turning to YKAGGFGA, the non-specific binding call is on record as “binds”.

Turning to AGKGGFAY, the non-specific binding call was “binds”.

With VKAGGDGS, the non-specific binding call is listed as “no binding”.

Turning to VGGTSDVF, the non-specific binding call is on record as “no binding”.

For VGGTSDVA, the non-specific binding call was “no binding”.

Regarding VGGTSDVV, the non-specific binding call is “no binding”.

As to YGGTSYSV, the non-specific binding call is “no binding”.

As for DKAGGAGV, the non-specific binding call was “no binding”.

Regarding SGTKGYWD, the non-specific binding call is listed as “binds”.

Take DGGTNDVA: the non-specific binding call is reported as “no binding”.

Take DGGTNDVD: the non-specific binding call is listed as “no binding”.

As to VGTKGSSA, the non-specific binding call is on record as “no binding”.

On to VKAASAVY, for which the non-specific binding call is reported as “no binding”.

YKAGDVSV: the non-specific binding call is given as “binds”.

For the variant YKAEDVGD, the non-specific binding call is recorded as “binds”.

Take SGRGNAGD: the non-specific binding call is “no binding”.

In the case of YGRTSAAV, the non-specific binding call is on record as “binds”.

Turning to YKAGDAGD, the non-specific binding call is recorded as “no binding”.

On to SGREGDSA, for which the non-specific binding call is “no binding”.

Turning to SGKGGSAY, the non-specific binding call is reported as “binds”.

For the variant AGTKADVV chain 1 G108S, the non-specific binding call is recorded as “no binding”.
